Results as given in patent US20240117054A1 (DRAGONFLY THERAPEUTICS, published 2024).

B1: 14H8.E7 (antibody, V domains shown)
VH: EVQLQESGAELVKPGASVKLSCKASGYTFTNYWINWLKQRPGQGLEWIGNIYPGSTIINYNEKFKNKATLTVDTSSSTAYMQLSSLTSDDSAVYYCARRVVYLYFDSWGQGTTLTVSS
VL: QIVLTQSPAIMSASPGEKVTMTCSASSSVSYMHWYQQKSGTSPKRWIFDTSKLASGVPVRFSGSGSGTSYSLTITNMETEDAATYYCQQWSSKSPTFGGGTKLEIK
B2: F3′-GB102 (bispecific antibody, human IgG1, kappa)
chain: DIVMTQSPDSLAVSLGERATINCRASESVDTYGSSFVHWYQQKPGQPPKLLIYLASNLESGVPDRFSGSGSGTDFTLTISSLQAEDVAVYYCQQNNEEPWTFGCGTKVEIKGGGGSGGGGSGGGGSGGGGSQVQLVQSGAEVKKPGASVKVSCKASGYTFTRYVMHWVRQAPGQCLEWMGFINPYNDDTKYNEKFKGRVTITRDTSASTAYMELSSLRSEDTAVYYCARWRQLGSLDSWGQGTTVTVSSGSDKTHTCPPCPAPELLGGPSVFLFPPKPKDTLMISRTPEVTCVVVDVSHEDPEVKFNWYVDGVEVHNAKTKPREEQYNSTYRVVSVLTVLHQDWLNGKEYKCKVSNKALPAPIEKTISKAKGQPREPRVYTLPPCRDELTKNQVSLTCLVKGFYPSDIAVEWESNGQPENNYKTTPPVLVSDGSFTLYSKLTVDKSRWQQGNVFSCSVMHEALHNHYTQKSLSLSPG
heavy: EVQLVESGGGLVKPGGSLRLSCAASGFTFSSYSMNWVRQAPGKGLEWVSSISSSSSYIYYADSVKGRFTISRDNAKNSLYLQMNSLRAEDTAVYYCARGAPIGAAAGWFDPWGQGTLVTVSSASTKGPSVFPLAPSSKSTSGGTAALGCLVKDYFPEPVTVSWNSGALTSGVHTFPAVLQSSGLYSLSSVVTVPSSSLGTQTYICNVNHKPSNTKVDKKVEPKSCDKTHTCPPCPAPELLGGPSVFLFPPKPKDTLMISRTPEVTCVVVDVSHEDPEVKFNWYVDGVEVHNAKTKPREEQYNSTYRVVSVLTVLHQDWLNGKEYKCKVSNKALPAPIEKTISKAKGQPREPQVCTLPPSRDELTENQVSLTCLVKGFYPSDIAVEWESNGQPENNYKTTPPVLDSDGSFFLYSWLTVDKSRWQQGNVFSCSVMHEALHNHYTQKSLSLSPG
light: DIQMTQSPSSVSASVGDRVTITCRASQGISSWLAWYQQKPGKAPKLLIYAASSLQSGVPSRFSGSGSGTDFTLTISSLQPEDFATYYCQQGVSFPRTFGGGTKVEIKRTVAAPSVFIFPPSDEQLKSGTASVVCLLNNFYPREAKVQWKVDNALQSGNSQESVTEQDSKDSTYSLSSTLTLSKADYEKHKVYACEVTHQGLSSPVTKSFNRGEC
notes: also called FLT3-targeting TriNKET

Columns and labels:
hFLT3-His fusion protein = target: T1, hFLT3-His fusion protein (human, UniProt P36888 27-541, limits assumed); test: SPR, purified murine subclone, hFLT3-His, 1:1 binding fit
T1 construct: Soluble recombinant antigen used for immunisation, ELISA, SPR and BLI binning; also called recombinant hFLT3 protein; not shown: His tag
T1 sequence (looked up): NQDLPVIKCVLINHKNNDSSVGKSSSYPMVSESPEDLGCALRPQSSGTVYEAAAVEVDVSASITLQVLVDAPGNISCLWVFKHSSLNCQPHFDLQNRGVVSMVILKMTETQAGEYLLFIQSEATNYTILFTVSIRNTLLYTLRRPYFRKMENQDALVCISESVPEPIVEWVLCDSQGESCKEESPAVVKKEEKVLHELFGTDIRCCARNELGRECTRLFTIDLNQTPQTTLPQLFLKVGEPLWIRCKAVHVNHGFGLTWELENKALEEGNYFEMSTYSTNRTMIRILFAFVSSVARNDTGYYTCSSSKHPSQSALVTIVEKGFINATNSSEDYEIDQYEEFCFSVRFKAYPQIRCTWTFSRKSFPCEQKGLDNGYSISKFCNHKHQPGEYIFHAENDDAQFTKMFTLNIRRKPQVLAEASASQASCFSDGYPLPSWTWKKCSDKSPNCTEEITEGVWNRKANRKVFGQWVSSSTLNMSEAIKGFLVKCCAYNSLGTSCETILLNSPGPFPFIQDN

[1] = target: T2, FLT3-ITD expressed on MV4-11 cells (human, UniProt P36888 27-543); test: flow cytometry on MV4-11 cells (FLT3-ITD), anti-human IgG secondary antibody, gMFI
T2 construct: whole, on cells; the ITD itself is not described; also called hFLT3-ITD; FLT3 with the ITD mutation
T2 sequence (looked up): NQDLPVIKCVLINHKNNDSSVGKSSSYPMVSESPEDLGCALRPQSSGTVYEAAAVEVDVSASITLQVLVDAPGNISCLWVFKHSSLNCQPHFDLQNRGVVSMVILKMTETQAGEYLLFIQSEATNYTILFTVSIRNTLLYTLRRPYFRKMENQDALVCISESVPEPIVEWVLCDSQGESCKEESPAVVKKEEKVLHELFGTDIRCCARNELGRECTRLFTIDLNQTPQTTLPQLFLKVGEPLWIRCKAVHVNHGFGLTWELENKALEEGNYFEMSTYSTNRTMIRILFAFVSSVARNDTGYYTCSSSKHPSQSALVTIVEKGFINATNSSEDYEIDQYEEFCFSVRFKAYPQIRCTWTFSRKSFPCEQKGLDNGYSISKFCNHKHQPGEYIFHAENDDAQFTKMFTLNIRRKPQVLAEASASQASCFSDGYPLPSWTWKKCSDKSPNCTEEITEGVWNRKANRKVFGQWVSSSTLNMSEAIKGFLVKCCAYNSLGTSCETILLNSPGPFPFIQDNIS
Text: (§1) Isogenic cell lines ectopically expressing human and cynomolgus monkey FLT3 were used to assess cross-reactivity between human and cynomolgus monkey FLT3. […] cancer cell line RMA expressing hFLT3 or cFLT3 was used to assess tumor antigen binding of FLT3-targeting TriNKET and parental mAb. The human AML cell lines MOLM-13 and MV4-11 and the human ALL cell line REH were used to assess binding ability of the TriNKET or parental mAb. In particular, MOLM-13 cells and MV4-11 cells, which expressed FLT3-T227M and FLT3-ITD, respectively, were used to assess the ability of the FLT3-targeting TriNKET and parental mAb to bind mutant FLT3.
(§2) The cells were then incubated with a fluorophore conjugated anti-human IgG secondary antibody and were analyzed by flow cytometry. The mean fluorescence intensity (MFI) values were normalized to secondary antibody only controls to obtain fold over background (FOB) values.

[2] = target: T3, human FLT3 (hFLT3) expressed on cells (human, UniProt P36888 27-993); test: flow cytometry on REH cells, anti-human IgG secondary antibody, fold over background (FOB)
T3 construct: whole, on cells; One molecule for all cell lines that carry human FLT3; also called RMA-hFLT3; FLT3 on REH cells
T3 sequence (looked up): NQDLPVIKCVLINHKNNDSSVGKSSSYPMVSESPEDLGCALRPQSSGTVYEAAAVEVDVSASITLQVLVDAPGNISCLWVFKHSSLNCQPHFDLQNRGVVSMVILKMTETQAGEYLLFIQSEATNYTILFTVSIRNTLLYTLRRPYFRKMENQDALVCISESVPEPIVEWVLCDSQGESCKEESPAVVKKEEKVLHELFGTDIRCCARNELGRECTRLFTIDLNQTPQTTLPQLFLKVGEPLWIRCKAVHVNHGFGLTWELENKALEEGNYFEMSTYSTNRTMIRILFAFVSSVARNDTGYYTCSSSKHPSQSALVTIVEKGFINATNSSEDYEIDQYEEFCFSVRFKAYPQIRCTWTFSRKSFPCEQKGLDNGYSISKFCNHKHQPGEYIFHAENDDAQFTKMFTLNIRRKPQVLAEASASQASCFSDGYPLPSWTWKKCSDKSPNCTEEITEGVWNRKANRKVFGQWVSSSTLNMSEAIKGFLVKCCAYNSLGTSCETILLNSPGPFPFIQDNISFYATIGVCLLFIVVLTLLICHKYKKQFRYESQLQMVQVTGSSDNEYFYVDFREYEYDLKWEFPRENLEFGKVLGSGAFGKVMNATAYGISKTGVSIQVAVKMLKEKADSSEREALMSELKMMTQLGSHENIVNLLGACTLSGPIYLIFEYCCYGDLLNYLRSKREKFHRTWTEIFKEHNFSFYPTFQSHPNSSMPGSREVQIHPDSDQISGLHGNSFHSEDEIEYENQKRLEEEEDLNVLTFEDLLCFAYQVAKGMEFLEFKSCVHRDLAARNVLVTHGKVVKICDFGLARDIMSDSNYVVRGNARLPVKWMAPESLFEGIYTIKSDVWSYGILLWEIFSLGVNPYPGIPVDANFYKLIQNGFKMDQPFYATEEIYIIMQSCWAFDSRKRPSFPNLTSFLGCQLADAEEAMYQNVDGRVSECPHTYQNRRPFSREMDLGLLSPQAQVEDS
Text: as §1, §2

[3] = target: T4, cynomolgus monkey FLT3 (cFLT3) expressed on RMA cells (cynomolgus monkey, UniProt A0A2K5VQ48 27-993); test: flow cytometry on RMA-cFLT3 cells, anti-human IgG secondary antibody, fold over background (FOB)
T4 construct: whole, on cells; also called RMA-cFLT3; cynomolgus FLT3
T4 sequence: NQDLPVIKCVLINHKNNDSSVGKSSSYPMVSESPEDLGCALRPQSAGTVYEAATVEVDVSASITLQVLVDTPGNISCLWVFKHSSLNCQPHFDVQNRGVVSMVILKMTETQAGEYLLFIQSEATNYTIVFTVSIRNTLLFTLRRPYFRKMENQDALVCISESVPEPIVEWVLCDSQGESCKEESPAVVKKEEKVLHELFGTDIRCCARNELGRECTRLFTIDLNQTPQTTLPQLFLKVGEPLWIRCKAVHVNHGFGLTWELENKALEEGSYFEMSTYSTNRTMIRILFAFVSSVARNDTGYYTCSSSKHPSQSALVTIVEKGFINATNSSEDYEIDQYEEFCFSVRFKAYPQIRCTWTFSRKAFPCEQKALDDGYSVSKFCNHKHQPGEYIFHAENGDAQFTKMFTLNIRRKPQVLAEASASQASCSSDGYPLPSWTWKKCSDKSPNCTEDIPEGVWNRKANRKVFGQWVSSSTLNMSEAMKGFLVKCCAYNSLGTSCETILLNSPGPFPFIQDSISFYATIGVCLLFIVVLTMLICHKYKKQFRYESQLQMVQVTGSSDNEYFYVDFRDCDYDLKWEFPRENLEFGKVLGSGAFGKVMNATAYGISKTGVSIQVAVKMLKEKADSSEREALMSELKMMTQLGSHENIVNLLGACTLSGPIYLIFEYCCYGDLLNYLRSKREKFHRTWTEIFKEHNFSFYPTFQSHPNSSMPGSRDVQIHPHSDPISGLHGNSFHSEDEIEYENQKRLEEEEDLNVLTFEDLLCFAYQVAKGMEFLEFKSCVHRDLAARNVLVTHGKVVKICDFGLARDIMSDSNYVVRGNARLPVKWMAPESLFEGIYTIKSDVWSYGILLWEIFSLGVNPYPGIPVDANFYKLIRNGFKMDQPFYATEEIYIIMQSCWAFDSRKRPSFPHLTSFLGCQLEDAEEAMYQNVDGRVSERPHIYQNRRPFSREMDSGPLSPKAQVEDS
Text: as §1, §2

[4] = target: T3, human FLT3 (hFLT3) expressed on cells; test: flow cytometry on RMA-hFLT3 cells, anti-human IgG secondary antibody, fold over background (FOB)
Text: as §1, §2

| Binder | binding result (hFLT3-His fusion protein) | EC50 (read off the curve) [1] [nM] | EC50 (read off the curve) [2] [nM] | EC50 (read off the curve) [3] [nM] | EC50 (read off the curve) [4] [nM] |
| --- | --- | --- | --- | --- | --- |
| B1 | binds | – | – | – | – |
| B2 | – | ~1 | ~5 | ~1 | ~1 |
